Measured values as given in patent publication US20080108793.

Tested on: crotonyl-ACP

Substance: N-terminal His-tagged F. tularensis FabI
- Km (crotonyl-ACP): 4.4 µM
